Source: the nanobody polyreactivity screen of Harvey et al. (2022)

experiment: yeast display, Sf9 membrane polyspecificity reagent, FACS + sequencing; frameworks hold sequencing errors
Procedure, shortened: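 A nanobody's polyreactivity label depends on the gate it was sorted from. Yeast display cells were stained with 10% biotinylated, detergent-solubilized Sf9 membrane reagent for 1 hour at 4 °C, enriched on streptavidin microbeads and sorted by FACS. The low and high (top ~1%) gates were set on anti-HA fluorescence for expression and streptavidin fluorescence for reagent binding.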

Row | Sequence | polyreactivity (PSR sort gate)
1 | QVQLVESGGGLVQAGGSLRLSCAASGSIFYINAMGWYRQAPGKERELGAAITSDGSTYYADSVKGRFTISRDKAKHTVYLQMNSLKPEDTAVYYCAADLTSDQFLYYWYWFYSWGQGTQVTVSS | low polyreactivity
2 | QVQLVESGGCLVQAGGSLRLSCAASGFTFDIYAMGWYRQAPGKERELVATISRSGGTTYYADSVKGRFTISRDNAKNTVYLQMNCLKPEDTAVYYCAAAAYYYRYRYRMYYWGQGTQVTVSS | high polyreactivity
3 | QVQLVESGGGLVQAGGSLRLSCAASGRIFGRYAMGWYRQAPGKERELVAAITSSGGNTYYADSVKGRFTISRDNAKNTVYLQMNSLKPEDTAVYYCNALSARSRLQSDYWGQGTQVTVSS | high polyreactivity
4 | QVQLVESGGGLVQVGGSLRLSCAASGITFSYYSMGWYRPAPGKERELVAAISQRGGSTYYADSVKGRFTISRDNAKNTVYLQMNSLKPEDTAVYYCAAAYRGANYGYGFDYWGQGTQVTVSS | high polyreactivity
5 | QVQLVESGGRLVQAGGSLRLSCAASGRISWSYAMGWYRQAPGKERELVAAITSGGTTNYADSVKGRFTISRDNAKNTVYLQMNSLKPEDTAVYYCARDSYQLGLIRDPLEYDYWGQGTQVTVSS | low polyreactivity
6 | QVQLVESGGGLVQAGGSLRLSCAASGRNFKYYAMGWYRPAPGKERELVAAISWSGGSTYYADSVKGRFTISRDNAKNTVYLQMNSLKPEDTAVYYCATYGGLTKFRLAYDYWGQGTQVTVSS | high polyreactivity
7 | QVQLVESGGGLVQAGGSLRLSCAASGSIFRNYAMGWYRQAPGKERELVATISWNGGRTHYADSVKGRFTISRDNAKNTVYLQMNSLKPVDTAVYYCNKDAASFRHFYGYGYWGQGTQVTVSS | low polyreactivity
8 | QVQLVESGGGLVQAGGSLRLSCAASGITFQKNAMGWYRKAPGKERELVAGITWRGSTYYADSVKGRFTISRDNAKNTVYLQMNSLKPEDTAVYYCAADPFYWYRSFRGEYWGKGTQVTVSS | low polyreactivity
9 | QVQLVESGGGLVQAGGSLRLSCAASGRTFYTYAMGWYRQAPGKERELVAAISSGGSTYYADSVKGRFTISRDNAKNTVYLQMNSLKPEDTAVYYCAARYSKRVWYGYWGQGTQVTVSS | high polyreactivity
10 | QVQLVESGGGLVQAGGSLRLICAAYGITIGVYAMGWYRQAPVKERELVAAISSSGDTTYYADSVKGRFTISRDNAKNTVYLQKNSLKPEDTAVYYSAAYSHHQFSRSEYYYWGQGTQVTVSS | low polyreactivity
11 | QLQLVESGGGLVQAGGSLRLSCAPSGRILWVNAMGWYRQAPGKERELVAAISLSGGRTYYADSVKGRFTISRDNAKNTVYLQMNSLKPEDTAVYYCAARTVNYYYTTGDYWGQGTQVTVSS | low polyreactivity
12 | QVQLVESGGGLVQAGGSLRLSCDASGRIFRKNAMGWYRQAPGKERELVAAISGGGGSTYYADSVKGRFTISRDNAKNTVYLQMNSLKPEDTADYYCNAPILPGYWGQGTQVTVSS | high polyreactivity
13 | QVQLVETGGGLVQAGGSLRLSCAASGRTFGHNDMGWSRQAPGKERELVATISSDGSTNYADSVKGRFTISRDNAKNTVYLQMNSLKPEDTAVYYCAKVYQYVEYDYWGQGTQVTVSS | low polyreactivity
14 | QVQLVESGGGLVQAGGSLRLSCAASGIIFAYYAMGWYRQAPGKERELVAAISWSGTSTYYADSVKGRFTISRDTATNTVYLQMNSLKPEDTAVYYCNAYGLYSDMDYWGQGTQVTVSS | high polyreactivity
15 | QVQLVDSGGGLVQAGGSLRLSCAASGRTFIFYAMGWSRQAPGKERELVAAISSGGSTDYADSVKGRFTISRDNAKNTVYLQMNSLKPEDTAVYFCKADTFQYPSTYDYWGQGNQVTVSS | low polyreactivity
16 | QVQLVESGGGLVQAGGSLRLSCAASGNTFNYNAMGWYRQAPGKERELVAAITSSGGSTYYADSVKGRFTISRDYAKNTVYLQMNSLKPDDTAVYYCAADLWQDSYSYWFDYWGQGTQVTVSS | high polyreactivity
17 | QVQLVESGGGLVQAGGSLRLSCAASGSIFYYYVMGWYRQAPGKERELVAAIRSSGTSTYYADSVKGRFTISRDNAKNTVYLQMNSLKPEDTAVYYCNRARSSSRYDYWGQGTQVTVSS | low polyreactivity
18 | QVQLVESGGGLVQAGGSLRLSCAASGRIFPSYAMGWYRQAPGKERELVAAISRSGGRTYYADSVKGRFTISRDNAKNTVYLQMNSLKPEDTAVYYCYPYYIASTFDYWGQGTQVTVSS | high polyreactivity
19 | QVQLVESGGGLVQAGGSLRLSCAASGRIFQYYVMGWYRKAPGKERELVAAITRRGTNTYYADSVKGRFTISRDNAMNTVYLQMNSLKPEDTAVYYCAAEAQTKWWDYYYWGQGTQVTVSS | high polyreactivity
20 | QVQLVESGGGLVQAGGRLRLSCAASGNIFYPNAMGWYRQAPGKERELVAAISSSGGSTYYADSVKGRFTISRDNAKNTVYLQMNSLKPEDTAVYYCAKDRSYAYYWWPYPTGYDYWGQGTQVTVSS | low polyreactivity
21 | QVQLVESGGGLVQAGGSLRLSCAASGFTFYRYAMGWYRQAPGKERELVAAITGGGSTYYADSVKGRFTISRDNAKNTVYLQMNSLKPEDTAVYYCNADIRAYTVLTGGYIYDYWGQGTQVTVSS | high polyreactivity
22 | QVQLVESGGGLVQAGGSLRLSCAASGFISYTYMGWYRQAPGKERELVAGITGSGGSTYYADSVKGRFTISRDNAKNTVYLQMNSLKPEDTAVYYCAAERPRRSPDGLNYWGQGTQVTVSS | high polyreactivity

Row | Sequence | polyreactivity (PSR sort gate)
23 | QVQLVESGGGLVQAGGSLRVSCAASGLTFDTNAMGWYRQARGKERELVAAITDSGDSTYYADSVKGRFTISRDNAKNTVYLQMNRLKPEDSAVYYCAARRSNLAWGRRRMYYWGQGTQVTVSS | high polyreactivity
24 | QVQLVESGGGLVQAGGSLRLSCAASGITFPYYAMGWYRQAPGKERELVAAISDGGSTNYADSVKGRFTISRDNAKNTVYLQMNSLKPEDTAVYYCAADYRYLFDYWGQGTQVTVSS | high polyreactivity
25 | QVQLVESGGGLVQAGGSLRLSCAASGRTFSAYAMGWYRQAPGKEREFVAAITFNTGSTYYADSVKGRFTISRDNAKNTVYLQMNSLKPEDTAVYYCAAALVGSVGYKGFDGFDYWGQGTQVTVSS | low polyreactivity
26 | QDQLVESGGGLVQAGGSLRLSCAASGSTFPDYAAMGWYRPAPGTERELVAAISKRGGSTYYADSVKGRFTISRDNAKNTVYYQMNSLKPEDTAVYSCNVEYYILTAGRYARAYDYGGQGTQVTVSS | high polyreactivity
27 | QVQLVESGGGLVQAGGSLRLSCAASGRIFAKNAMGWYRQAPGKERELVAAISGSGGSTYYADSVKGRFTISRDNAKNTVYLQMNSLKPDDTAVYYCAATRGPNYRNGYWGQGTQVTVSS | high polyreactivity
28 | QVQLVESGGGLVQAGGSLRLSCAASGRTFGSYAMGWYRQAPGKERELVAAITASGVRTYYADSVKGRFTISRDNAKNTVYLQMNSLKPEDTAVYYCNARRLSTVQYDYWGQGTQVTVSS | high polyreactivity
29 | QVQLVESGGGLVQAGGSLRLSCAASGRIFFSNAMGWYRQAQGKEREMVASITGGDDTNYADSVKGRFTISRDNAKNTVYLQMNSLKPEDTAVYYCAARAIPSYRWFYRFAPKYDYWGQGTQVTVSS | low polyreactivity
30 | QVQLVESGGGLVQAGGSLRLSCAASGRIFTYMGWYRQAPGKERELVAGISWRGTSTYYADSVKGRFTISRDNAKNTVYLQMNSLKPEDTAVYYCAAPWAYHVRGDYWGQGTQVTVSS | low polyreactivity
31 | QVQLVESGGGLVQAGGSLRLSCAASGSIFSYYVMGWYRQAPGKERELVAAISWSGGSTYYADSVKGRFTISRDNAKNTVYLQMNSLKPEDTAVYYCAAGTYPYYWGQGTQVTVSS | low polyreactivity
32 | QVQLVESGGGLVQARGSLRLSCAASGRIFFRNAKGWYRQAPGKERELVAAITYSGGSTYYADSVKGRFTISRDNAKNTVYLQMNSLKPEDTAVYYCGAGYWFSYSRVTRYDYWGQGTQVTVSS | high polyreactivity
33 | QVQLVESGGGLVQAGGSLRLSCAASGSIFAWYAMGWYRQAPGKERELVATITWSGGSTYYADSVKGRFTISRDNAKNTVYLQMNSLKPEDTAVYYCAAEVVGICYDLWYQGDYWGQGTQVTVSS | low polyreactivity
34 | QVQHVESGGGVVQGGGSLRLSCAASLSIFYIYAMGWYRQAPGTERELVAAITRSGGSTNYADSVTGPFTFSRDNATNTVYLQMTSLQPEDTAVYYCAAAVGRPYTPTYDYWGQGTKVTVSS | low polyreactivity
35 | QVQLVESGGGLVQAGGSLRLSCSASGSTFVTNVIGWYRQAPGKERELVAAISYSGGNTYYEDSVKGRFTISRDNAKNTVYLQMNSLKPEDTAVYYCAASYKPFKKMGYWGQGTQVTVSS | high polyreactivity
36 | QVQLVESRGGLVQAGGSLRLSCSASGFIRTYAMGWYRQAPAKERELVAAITSSGGRTNYADSVKGRFTISRDNAKNTVYLQMNSLKPEDTAVYYCAAGLGRYLRYNYWGQGTQVTVSS | high polyreactivity
37 | QVQLVESGGGLVQAGGSLRLSCAASGIILKYYAMGWNRQAPVKERELVAAITSSGDSTYYADSVKGRFTISRDNAKNTVYLQMNSLKPDDTAVYYCAALRFRGGQSTGRDRMDYWGQGTQVTVSS | high polyreactivity
38 | QVQLVESGGGLVQAGGSLRLSCAASGRIFYRNAMGWYRQAPGKERELVAAISYSGGRTYYADSVKGRFTISRDNAKNTVYLQMNSLKPEDTAVFYCAARYAWGYVDPGDYWGQGTQVTVSS | high polyreactivity
39 | QVQLVESGGGLVQAGGSLRLICDASGRILTGNAMGWYRQAPGKERELVAAISYNGGRTYYADSVKGRFTISRDNAKNTVYLQMNSLKPEDTAVYYCNVVRRQLQTSHPYGYWGQGTQVTVSS | low polyreactivity
40 | QVQLVESGGGLVQAGGSLRLSCAASGRTLHKNVMGWYRQAPGKERELVAAINTGGRTYYADSVKGRFTISRDNAKNTVYLQMNSLKREDTAVYYCAKEGHVNPRPTVGGDYWGQGTQVTVSS | low polyreactivity
41 | QVQLVESGGGLVQAGGSLRLICAASGNTFVRYYMGWYRQAPGKEREFVAAITASGGSTFADSVKGRFTISRDNAKNTVYLQMNSLKPEDTAVYYCNAGNSSTGVDRYDYWGQGTQVSVSS | low polyreactivity
42 | QVQLVESGGGLVQAGGSLRLSCAASGRIFRYNTMGWYRQAPGKERELVASITYRGGSTYYADSVKGRFTISRDNAKNTVYLQMNSLKPEDTAVYYCAASPARYWYGGKEYDYWGQGTQVTVSS | high polyreactivity
43 | QVQLVESGGGLVQAGGSLRLSCAASGLISIFYTMGWYRQAPGKERELVAAITSGGSSTYYADSVKGRFTISRDNAKNTVYLQMNCLIPVDTAVYYCAAEPGFYYYWGQGTQVTVSS | low polyreactivity
